In series [1] the target is T1, CED-4 apoptosome (full-length wild-type CED-4) (C. elegans, UniProt P30429 1-549).
T1 sequence (looked up): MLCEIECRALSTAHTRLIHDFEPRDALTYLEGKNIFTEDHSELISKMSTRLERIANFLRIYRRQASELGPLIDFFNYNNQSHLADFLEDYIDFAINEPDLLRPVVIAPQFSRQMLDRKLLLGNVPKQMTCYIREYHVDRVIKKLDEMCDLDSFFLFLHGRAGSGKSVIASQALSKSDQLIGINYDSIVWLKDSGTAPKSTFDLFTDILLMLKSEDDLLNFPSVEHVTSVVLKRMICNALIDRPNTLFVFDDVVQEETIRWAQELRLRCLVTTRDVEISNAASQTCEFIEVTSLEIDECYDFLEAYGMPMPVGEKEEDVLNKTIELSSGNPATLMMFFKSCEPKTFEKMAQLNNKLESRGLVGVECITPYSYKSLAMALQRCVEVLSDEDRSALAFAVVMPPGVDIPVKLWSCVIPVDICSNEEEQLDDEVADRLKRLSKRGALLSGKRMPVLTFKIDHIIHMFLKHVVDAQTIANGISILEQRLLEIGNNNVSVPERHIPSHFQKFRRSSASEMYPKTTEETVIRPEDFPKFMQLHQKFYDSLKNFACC
Description: SEC. In general terms: Size exclusion chromatography separates by hydrodynamic size, large species first.

The series “crystal structure” concerns the molecule itself. The experiment in a line: crystal structure.
Series [2] concerns the target T1, CED-4 apoptosome (full-length wild-type …). Description: crystal structure.

Positions count from the first letter of the chain named. Numbers in names are those of the source. Where no end group is shown, it is not given here. [ ]: non-standard residue; d: D form. SeMet = C[Se]CC[C@H](N)C(=O)O

We go through eight molecules from publication PMC3792479 (Genes & Development, 2013).

What is called stoichiometry N is the number of molecules, sites or subunits per partner or assembly.

B1: CED-3 (residues 198–503 and C358S) (domain or fragment, C. elegans, UniProt P42573 198-503, looked up)
chain: NRSFSKASGPTQYIFHEEDMNFVDAPTISRVFDEKTMYRNFSSPRGMCLIINNEHFEQMPTRNGTKADKDNLTNLFRCMGYTVICKDNLTGRGMLLTIRDFAKHESHGDSAILVILSHGEENVIIGVDDIPISTHEIYDLLNAANAPRLANKPKIVFVQASRGERRDNGFPVLDSVDGVPAFLRRGWDNRDGPLFNFLGCVRPQVQQVWRKKPSQADILIAYATTAQYVSWRNSARGSWFIQAVCEVFSTHAKDMDVVELLTEVNKKVACGFQTSQGSNILKQMPEMTSRLLKKFYFWPEARNSAV
B1: the binding result in series [1] was “binds”.

B2: two-chain CED-3 (residues 198–374, 389–503, and C358A) (domain or fragment, C. elegans)
chain 1: NRSFSKASGPTQYIFHEEDMNFVDAPTISRVFDEKTMYRNFSSPRGMCLIINNEHFEQMPTRNGTKADKDNLTNLFRCMGYTVICKDNLTGRGMLLTIRDFAKHESHGDSAILVILSHGEENVIIGVDDIPISTHEIYDLLNAANAPRLANKPKIVFVQAARGERRDNGFPVLDSVD
chain 2: GPLFNFLGCVRPQVQQVWRKKPSQADILIAYATTAQYVSWRNSARGSWFIQAVCEVFSTHAKDMDVVELLTEVNKKVACGFQTSQGSNILKQMPEMTSRLLKKFYFWPEARNSAV
As for B2, the binding result in series [1] is “binds”.

B3: two-chain caspase domain of CED-3 (residues 198–374, 389–503, and C358S) (domain or fragment, C. elegans)
chain 1: B2 chain 1 with A161S
chain 2: B2 chain 2
Regarding B3, the “stoichiometry N” value in the series “crystal structure” was found to be 2.

B4: two-chain CED-3 with partial deletion of the L2 loop (residues 365–374) (domain or fragment, C. elegans)
chain 1: NRSFSKASGPTQYIFHEEDMNFVDAPTISRVFDEKTMYRNFSSPRGMCLIINNEHFEQMPTRNGTKADKDNLTNLFRCMGYTVICKDNLTGRGMLLTIRDFAKHESHGDSAILVILSHGEENVIIGVDDIPISTHEIYDLLNAANAPRLANKPKIVFVQAARGERRD
chain 2: B2 chain 2
Take B4: the binding result in series [1] was “binds”.

B5: CED-3 L2′ loop fragment (residues 389–409) (peptide, UniProt P42573 389-409, looked up)
peptide: GPLFNFLGCVRPQVQQVWRKK
As for B5, in series [2], the “stoichiometry N” value was 8 L2′ loop fragments per CED-4 apoptosome.

B6: CED-3 L2′ loop fragment (residues 389–409) with Leu391 replaced by selenomethionine (peptide, UniProt P42573 389-409, looked up)
peptide: GP[SeMet]FNFLGCVRPQVQQVWRKK
As for B6, the binding result in series [2] is “binds”.

B7: CED-3 L2′ loop fragment (residues 389–409) with Leu391 and Leu395 replaced by selenomethionine (peptide, UniProt P42573 389-409, looked up)
peptide: GP[SeMet]FNF[SeMet]GCVRPQVQQVWRKK
With B7, the binding result in series [2] is listed as “binds”.

B8: CED-3 L2′ loop fragment (residues 389–409) with Leu395 replaced by selenomethionine (peptide, UniProt P42573 389-409, looked up)
peptide: GPLFNF[SeMet]GCVRPQVQQVWRKK
Take B8: in series [2], the binding result is “binds”.
